The experiment concerns the target T1, GST-AtSK21 (Arabidopsis thaliana, UniProt Q39011 1-380).
T1 sequence (looked up): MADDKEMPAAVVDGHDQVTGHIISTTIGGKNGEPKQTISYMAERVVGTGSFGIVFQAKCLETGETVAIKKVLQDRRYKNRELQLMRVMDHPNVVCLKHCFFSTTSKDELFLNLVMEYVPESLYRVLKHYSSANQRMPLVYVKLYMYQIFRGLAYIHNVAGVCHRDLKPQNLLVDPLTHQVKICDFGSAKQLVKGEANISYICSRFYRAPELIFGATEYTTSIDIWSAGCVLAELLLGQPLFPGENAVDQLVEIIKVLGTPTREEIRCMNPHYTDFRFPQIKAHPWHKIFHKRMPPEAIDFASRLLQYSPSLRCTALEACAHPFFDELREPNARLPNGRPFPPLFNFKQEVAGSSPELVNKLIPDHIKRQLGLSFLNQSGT
The experiment in a line: pull-down.

B1: MBP-WOX5 (natural protein, Arabidopsis thaliana, UniProt Q8H1D2 1-182, looked up)
chain: MSFSVKGRSLRGNNNGGTGTKCGRWNPTVEQLKILTDLFRAGLRTPTTDQIQKISTELSFYGKIESKNVFYWFQNHKARERQKRRKISIDFDHHHHQPSTRDVFEISEEDCQEEEKVIETLQLFPVNSFEDSNSKVDKMRARGNNQYREYIRETTTTSFSPYSSCGAEMEHPPPLDLRLSFL
As to B1, the binding result is listed as “binds”.

The record behind these values is article doi:10.1101/2023.08.13.546412 (bioRxiv, 2023).
